Laboratory results published in the supplement of paper PMC10126150.
± gives the standard deviation of the averaged measurements.

test system: ATP; test: switch fluorescence ratio, 500 uM ATP over buffer (Cy3 cluster intensity, sum of 5 cycles each) (fold (ratio)); higher = stronger signal-on switching upon ATP binding; sequences stand for … in TCGTCGGCAGCGTCAGATGTGTATAAGAGACAGTTTTTTTTTTTTTTTTTTTTTTTTT…TC; details: aptamer strand: ATP DNA aptamer (quencher-CACCTGGGGGAGTATTGCGGAGGAAGG + anchor), 100 nM annealed; ATP concentration: 500 uM
Procedure, shortened: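 Exposure to 500 uM ATP lasted 15 min at 22 °C before imaging, and a selection-buffer image was taken beforehand, for Cy3-labelled switching-strand clusters on a modified Illumina MiSeq flow-cell annealed to 100 nM quencher-labelled ATP aptamer. Five buffer/ATP cycles were run with NaOH stripping and re-annealing between them. The fluorescence ratio per cluster is summed target-cycle over summed buffer-cycle Cy3 intensity, averaged per switch-domain sequence. Clusters outside 100-1000 RFU were excluded.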

| Sequence | switch fluorescence ratio |
| --- | --- |
| AAACAAGTTG | 1.02 ± 0.035 |
| GAAGGGGCTG | 1.01 ± 0.14 |
| CCTGCCTCCT | 2.27 ± 0.041 |
| TTGTTAAAGT | 1 ± 0.038 |
| TCTTGCATAA | 1.07 ± 0.076 |
| CGTGGGGATA | 1.031 ± 0.009 |
| ACGAAAACGC | 1.36 ± 0.23 |
| CGATTAAATG | 0.993 ± 0.013 |
| TAGGGCGGTT | 0.98 ± 0.046 |
| TTTTAAGCAG | 1.05 ± 0.036 |
| TTCGGTTTTC | 0.984 ± 0.033 |
| CATGCCATCC | 1.16 ± 0.051 |
| TGTGGGATCG | 0.97 ± 0.02 |
| GCCCAATTTT | 0.998 ± 0.034 |
| TAGTGTCTTT | 0.993 ± 0.014 |
| CAATGTGGAG | 0.992 ± 0.055 |
| AAGAGGGATG | 0.988 ± 0.043 |
| GTTGGTTCTT | 1 ± 0.039 |
| CACTTTGGGG | 0.971 ± 0.0062 |
| TTAATTATGG | 1 ± 0.034 |
| GGTTCAACGG | 0.982 ± 0.014 |
| AGGGGAGGTA | 0.965 ± 0.021 |
| TTACTCTTCG | 1.062 ± 0.0074 |
| ATAAAGGGAT | 1 ± 0.034 |
| CCACCCACAT | 1.48 ± 0.065 |
| AAAAACATTT | 0.998 ± 0.051 |

| Sequence | switch fluorescence ratio |
| --- | --- |
| GCTTAATCAG | 0.988 ± 0.022 |
| CTTGATATTG | 0.999 ± 0.018 |
| TTGGGGTTGC | 1.01 ± 0.034 |
| ATTGTTTGAG | 0.982 ± 0.0032 |
| CTGGTCGCT | 0.976 ± 0.017 |
| TAGAACGTCG | 0.98 ± 0.031 |
| GGTGCAGGTA | 0.984 ± 0.025 |
| GGATGAGTTA | 0.983 ± 0.015 |
| TTAACGCAA | 3.6 ± 2 |
| TCGTGATGTA | 0.974 ± 0.014 |
| TTCGACCTAG | 0.986 ± 0.014 |
| TATGTCTCCG | 1.03 ± 0.017 |
| ATGGAAAAGG | 0.9916 ± 0.0094 |
| AAAATAAGAG | 1.009 ± 0.0037 |
| AAAGGAAAGG | 0.992 ± 0.014 |
| GTTGGAGCTA | 1.036 ± 0.0083 |
| TCGTAGGAGG | 1.07 ± 0.024 |
| GGAGGAGGGG | 1 ± 0.023 |
| TTGGGGTAGG | 1.01 ± 0.032 |
| CTGGGGGGTG | 1.02 ± 0.024 |
| CGGTGTTGTT | 1.018 ± 0.0014 |
| TTTATAGCT | 1.02 ± 0.027 |
| GCGGGAGGGT | 1.015 ± 0.0081 |
| GGCGGTAAGA | 1 ± 0.051 |
| TTGGTTGTAT | 1 ± 0.011 |
| CCTTAAGACA | 1.06 ± 0.015 |

| Sequence | switch fluorescence ratio |
| --- | --- |
| TCGTGTTCTT | 0.95 ± 0.028 |
| AGGGGGGTTC | 0.994 ± 0.023 |
| CTTGAAGGGG | 0.999 ± 0.036 |
| GCGTAAAGGT | 1.014 ± 0.0064 |
| AGGAGCAGGG | 1 ± 0.05 |
| GTACGAGGGA | 0.997 ± 0.026 |
| ATAAAATTA | 1.011 ± 0.01 |
| AGTTGCGGGA | 1.0114 ± 0.00031 |
| GCTATGAATG | 1.01 ± 0.024 |
| GCAGGGGGGG | 1.05 ± 0.054 |
| TGGGTGGTGG | 0.983 ± 0.016 |
| TGATGAGTCT | 1.03 ± 0.062 |
| ACATTGTTTT | 1.02 ± 0.021 |
| ACGCCTACGA | 1.15 ± 0.09 |
| TCAAGGGCAG | 1.0257 ± 0.00011 |
| TTATGATTTA | 0.9434 ± 0.0029 |
| GAAAGATGAC | 1.03 ± 0.088 |
| AAGACTCGGT | 0.9518 ± 0.0012 |
| ACGCGGCGGG | 0.977 ± 0.036 |
| TGGGAATGTT | 1.01 ± 0.011 |
| AAGTATATTT | 1.001 ± 0.0047 |
| AACCGTATGG | 1 ± 0.022 |
| AGATGGCATT | 1 ± 0.048 |
| GAAACCTATT | 1.0142 ± 7.7e-05 |
| GTGATTGCTG | 0.9883 ± 0.0052 |
| ACGATGTATC | 1.06 ± 0.049 |

| Sequence | switch fluorescence ratio |
| --- | --- |
| TTGGTTGAAC | 0.946 ± 0.032 |
| GGAGTTTTTT | 0.968 ± 0.029 |
| TGTGGCATGA | 0.9736 ± 0.0058 |
| TAAGATGGCT | 1.11 ± 0.092 |
| TTCGGGGCTT | 0.983 ± 0.035 |
| ATGTGCATAT | 1.03 ± 0.02 |
| TGCTGTGGGA | 0.9689 ± 0.006 |
| GGGGGAGGAA | 0.978 ± 0.026 |
| CGTTTGAATA | 0.974 ± 0.052 |
| TAATCAAAGT | 1.02 ± 0.018 |
| ACTTATATA | 1.02 ± 0.022 |
| ATTTATTTTT | 1.011 ± 0.002 |
| GATATCTGGA | 1.018 ± 0.0099 |
| CGATTCTGCT | 0.996 ± 0.036 |
| CGGAGGGGTG | 1.02 ± 0.022 |
| TCCAGGGTAC | 1.23 ± 0.18 |
| TCAACGGTAT | 1.06 ± 0.029 |
| GAATGGCGG | 0.998 ± 0.041 |
| GTTAGTATAA | 0.9894 ± 0.0074 |
| GCTCTCGGTA | 1.03 ± 0.039 |
| TTAATTTTTC | 1.02 ± 0.03 |
| GCAGGGGGTT | 1 ± 0.028 |
| TCCCTGGACT | 1.023 ± 0.0099 |
| GGGTTTTTGG | 0.997 ± 0.032 |
| GGCAGTGTGC | 0.99 ± 0.022 |
| TTTGCTTAAC | 1.07 ± 0.13 |

| Sequence | switch fluorescence ratio |
| --- | --- |
| AGAGACGGGG | 1.02 ± 0.013 |
| TTTGAGCCCC | 1.04 ± 0.1 |
| TACCTGGTTT | 1 ± 0.03 |
| TGTTATGTCC | 1 ± 0.023 |
| TATACCGCGA | 2.49 ± 0.29 |
| GTTTATGTGA | 1.03 ± 0.057 |
| CAAAATTAAA | 0.958 ± 0.044 |
| TTAGATATAT | 0.996 ± 0.036 |
| GAGTCTCTTA | 1 ± 0.027 |
| CGAGCGGAAG | 1.03 ± 0.032 |
| TTTGGCGAGT | 1.01 ± 0.021 |
| ATTGTTAGGG | 0.985 ± 0.019 |
| ATGTTTATCA | 1.01 ± 0.055 |
| TATGGAAACG | 0.981 ± 0.011 |
| ATGTTCGACA | 0.965 ± 0.027 |
| TTGAGGGTGA | 0.988 ± 0.016 |
| TTTCTATGGG | 1.03 ± 0.033 |
| TTCGGTTGTG | 0.96 ± 0.013 |
| TGGGGGGTAG | 0.988 ± 0.02 |
| TAGACTGGTT | 0.992 ± 0.018 |
| ACCTGGGCGC | 1.2 ± 0.12 |
| CCTCTATTGG | 1.045 ± 0.0041 |
| TATGAGCTGG | 0.97 ± 0.015 |
| ATAGTTAAAT | 0.943 ± 0.089 |
| TTGGAGGCCC | 0.9801 ± 0.0029 |
| ACGTTTGGGG | 0.968 ± 0.049 |

| Sequence | switch fluorescence ratio |
| --- | --- |
| CGTCGGGAAT | 1.35 ± 0.051 |
| TCGGGTCGTA | 1.02 ± 0.019 |
| AGTAAAGTTG | 0.991 ± 0.024 |
| GGCGGGGGAA | 1.01 ± 0.059 |
| AGATCTATTG | 1.03 ± 0.033 |
| ATCTGATATT | 1.01 ± 0.033 |
| AAGTAGCGCT | 1 ± 0.024 |
| GAGCAACCTT | 1.45 ± 0.014 |
| TGGGGTGGTT | 1.03 ± 0.015 |
| AGGAAGACAA | 1.03 ± 0.028 |
| TTTAATAGCT | 1 ± 0.04 |
| AGGGGAATCG | 1.01 ± 0.016 |
| CCGTTGGGGT | 1.11 ± 0.13 |
| TACCACTTAA | 1.03 ± 0.035 |
| GTTTTTGATA | 0.998 ± 0.02 |
| AAGCGGTTG | 1.005 ± 0.006 |
| GGGGTTAAAA | 0.973 ± 0.024 |
| GTTAGGTATA | 0.9975 ± 0.0098 |
| TTCAAAGGCC | 0.981 ± 0.049 |
| CTGTTCATGG | 1.02 ± 0.019 |
| AAAGGTAGGG | 0.993 ± 0.032 |
| AGTGGTGGGG | 0.966 ± 0.014 |
| CGTCTGTCTG | 0.976 ± 0.033 |
